This is an account of results in patent US20230340155A1 (published 2023).

First the molecules themselves.
B1: PD1B1085 (antibody, human IgG1, kappa, V domains shown)
VH: QVQLVQSGSELKKPGASVKVSCKASGYTFTDYSMHWVRQAPGQGLEWMGWINIETGYPTYAQGFTGRFVFSLDTSVSTAYLQISSLKAEDTAVYFCARDYYGTYFYAMDYWGQGTLVTVSS
VL: EIVLTQSPATLSLSPGERATLSCTASSSVSSSYLHWYQQKPGLAPRLLIYSTSNLASGIPDRFSGSGSGTDYTLTISRLEPEDFAVYYCHQYHRSPLTFGQGTKLEIKR
notes: IgG1; also called PD1H585/PD1L469; E57Y (VH) variant of PD1B878
B2: PD1B1092 (antibody, human IgG1, kappa, V domains shown)
VH: B1 VH with Y57W
VL: B1 VL with V29F
notes: IgG1; also called PD1H587/PD1L651; E57W (VH), V29F (VL) variant of PD1B878
B3: PD1B1094 (antibody, human IgG1, kappa, V domains shown)
VH: B1 VH with Y57H
VL: B1 VL with S30P
notes: IgG1; also called PD1H586/PD1L652; E57H (VH), S30P (VL) variant of PD1B878
B4: PD1B1086 (antibody, human IgG1, kappa, V domains shown)
VH: B1 VH with Y57H
VL: B1 VL
notes: IgG1; also called PD1H586/PD1L469; E57H (VH) variant of PD1B878
B5: PD1B1093 (antibody, human IgG1, kappa, V domains shown)
VH: B1 VH
VL: B1 VL with S30P
notes: IgG1; also called PD1H585/PD1L652; E57Y (VH), S30P (VL) variant of PD1B878
B6: PD1B1088 (antibody, human IgG1, kappa, V domains shown)
VH: B1 VH with Y57E
VL: B1 VL with V29F
notes: IgG1; also called PD1H405/PD1L651; V29F (VL) variant of PD1B878
B7: PD1B1090 (antibody, human IgG1, kappa, V domains shown)
VH: B1 VH
VL: B1 VL with V29F
notes: IgG1; also called PD1H585/PD1L651; E57Y (VH), V29F (VL) variant of PD1B878
B8: PD1B1087 (antibody, human IgG1, kappa, V domains shown)
VH: B1 VH with Y57W
VL: B1 VL
notes: IgG1; also called PD1H587/PD1L469; E57W (VH) variant of PD1B878
B9: PD1B1089 (antibody, human IgG1, kappa, V domains shown)
VH: B1 VH with Y57E
VL: B1 VL with S30P
notes: IgG1; also called PD1H405/PD1L652; S30P (VL) variant of PD1B878
B10: PD1B1091 (antibody, human IgG1, kappa, V domains shown)
VH: B1 VH with Y57H
VL: B1 VL with V29F
notes: IgG1; also called PD1H586/PD1L651; E57H (VH), V29F (VL) variant of PD1B878
B11: PD1B1095 (antibody, human IgG1, kappa, V domains shown)
VH: B1 VH with Y57W
VL: B1 VL with S30P
notes: IgG1; also called PD1H587/PD1L652; E57W (VH), S30P (VL) variant of PD1B878
B12: PD1B878 Fab variant with heavy chain PD1H585 (E57Y) (Fab, V domains shown)
VH: B1 VH
VL: EIVLTQSPATLSLSPGERATLSCTASSSVSSSYLHWYQQKPGLAPRLLIYSTSNLASGIPDRFSGSGSGTDYTLTISRLEPEDFAVYYCHQYHRSPLTFGQGTKLEIK
notes: Soluble Fab of the non-combinatorial CDR scan
B13: PD1B878 Fab variant with light chain PD1L651 (V29F) (Fab, V domains shown)
VH: B1 VH with Y57E
VL: B12 VL with V29F
notes: as for B12
B14: PD1B878 Fab variant with heavy chain PD1H586 (E57H) (Fab, V domains shown)
VH: B1 VH with Y57H
VL: B12 VL
notes: as for B12
B15: PD1B878 Fab variant with heavy chain PD1H587 (E57W) (Fab, V domains shown)
VH: B1 VH with Y57W
VL: B12 VL
notes: as for B12
B16: PD1B878 Fab variant with light chain PD1L652 (S30P) (Fab, V domains shown)
VH: B1 VH with Y57E
VL: B12 VL with S30P
notes: as for B12

Changes are numbered by the printed parent chain. Names may count otherwise.

The first test deals with T1, cyno PD-1 (SPR analyte) (cynomolgus monkey).
T1 construct: Construct of the soluble analyte is not described; also called cynomolgus PD-1
Briefly: SPR, ProteOn XPR36, mAb captured by anti-human IgG Fc, cyno PD-1 as analyte, 25 C. The procedure:
Affinity measurements were performed using a ProteOn XPR36 system (BioRad). […] Approximately 5000 RU (response units) of mAbs were immobilized. The kinetic experiments were performed at 25° C. in running buffer (DPBS+0.01% P20+100 µg/mL BSA). To perform kinetic experiments, 200 RU of mAbs were captured followed by injections of analytes (human and cyno PD-1) at concentrations ranging from 1.563 nM to 400 nM (in a 4-fold serial dilution). The association phase was monitored for 3 minutes at 50 µL/min, then followed by 10 or 15 minutes of buffer flow (dissociation phase). The chip surface was regenerated with two 18 second pulses of 100 mM H₃PO₄ (Sigma, Cat#7961) at 100 µL/min.
The collected data were processed using ProteOn Manager software. First, the data was corrected for background using inter-spots. Then, double reference subtraction of the data was performed by using the buffer injection for analyte injections. The kinetic analysis of the data was performed using a Langmuir 1:1 binding model. The result for each mAb was reported in the format of ka (On-rate), kd (Off-rate) and KD (equilibrium dissociation constant).
Affinity of the antibodies to human and cyno PD-1 was measured using SPR as described in Example 1.
In general terms: Surface plasmon resonance follows binding to a sensor surface in real time, without labels.
B1: the Kd (commonly the concentration at which binding is half-saturated) worked out at 6.45 nM; the koff (as a rule, a measure of how fast the partners let go of each other) was 0.00129 s⁻¹; the kon (commonly a measure of how fast the partners come together) amounted to 200000 M⁻¹ s⁻¹.
The like results for B2 were, in that order, 3.18 nM, 0.000411 s⁻¹ and 129000 M⁻¹ s⁻¹.
For B3, in that order: 12 nM, 0.00162 s⁻¹ and 135000 M⁻¹ s⁻¹.
The like results for B4 were, in that order, 31.8 nM, 0.00544 s⁻¹ and 171000 M⁻¹ s⁻¹.
With B5, the Kd was found to be 2.18 nM, the koff came to 0.000368 s⁻¹ and the on-rate (kon) stood at 169000 M⁻¹ s⁻¹.
For B6, in that order: 72.4 nM, 0.00479 s⁻¹ and 66100 M⁻¹ s⁻¹.
For B7, in that order: 1.43 nM, 0.000185 s⁻¹ and 130000 M⁻¹ s⁻¹.
B8 returned a Kd of 11.6 nM, a koff of 0.00247 s⁻¹ and a kon of 212000 M⁻¹ s⁻¹.
For B9, in that order: 90 nM, 0.00839 s⁻¹ and 93200 M⁻¹ s⁻¹.
The like results for B10 were, in that order, 9.32 nM, 0.000924 s⁻¹ and 99100 M⁻¹ s⁻¹.
B11 showed a Kd of 4.23 nM, a koff of 0.000781 s⁻¹ and a kon of 185000 M⁻¹ s⁻¹.

For the next test, the target named is T2, biotinylated Human PD-1/PDCD1 (Acro Biosystems, Cat# PD1-H82E4) (human, UniProt Q15116 25-167, biotinylated).
T2 construct: Bought reagent; whole mature entry named
T2 sequence (Q15116 25-167 limits assumed): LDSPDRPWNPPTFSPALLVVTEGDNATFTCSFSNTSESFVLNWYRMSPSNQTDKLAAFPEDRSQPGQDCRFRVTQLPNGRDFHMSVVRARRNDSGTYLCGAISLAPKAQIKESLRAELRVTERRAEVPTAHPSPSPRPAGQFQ
Briefly: Fab ELISA, Fab captured by anti-Fd(CH1) antibody, 5 nM biotinylated human PD-1, streptavidin-HRP chemiluminescence. How it is done:
For follow-up screening, plasmid DNA was prepared from overnight culture of the TG-1 Escherichia coli cells and the pIX gene was excised by NheI/SpeI digestion. After ligation, the DNA was transformed into TG-1 cells and grown on LB/Agar plates overnight. The next day, colonies were picked, grown overnight, and the cultures used for (i) colony sequencing of the V- regions, and (ii) induction of Fab production. For Fab production, the overnight culture was diluted 100 folds in new media and grown for 5-6 hours at 37° C. Fab production was induced by the addition of fresh media containing IPTG and the cultures were grown overnight at 30° C. The following day, the cultures were spun down and the supernatants, containing the soluble Fab proteins, were used for Fab ELISA. For the ELISA, the soluble Fab proteins were captured onto plates by a polyclonal anti-Fd(CH1) antibody. After washing and blocking, biotinylated Human PD-1/PDCD1 was added at 5 nM concentration. […] The biotinylated human PD-1 was detected by HRP-conjugated streptavidin with chemiluminescence measured in a plate reader.
As for B12, the “fold change in ELISA binding versus the parental Fab” value (from here on “fold change”) amounted to 10 fold.
With B13, the “fold change” value stood at 10 fold.
In the case of B14, the “fold change” value was 10 fold.
For the molecule B15, the “fold change” value is 10 fold.
For B16, the “fold change” value turned out to be 10 fold.
